Literature values, collected in EP4803095A2, “FORMULATIONS OF GLUCAGON-LIKE-PEPTIDE-2 (GLP-2) ANALOGUES” (Zealand Pharma A/S, priority 2018, dated 2026).
Like-named read-outs stand apart in the source and are kept apart here.

Conditions: for half-life in humans: background art

Row | Substance | half-life in humans | half-life (in vivo) | half-life in humans (listed as native GLP-2)
1 | GLP-2 [3-33]: truncated GLP-2 [3-33] (DGSFSDEMNTILDNLAARDFINWLIQTKITD; Glucagon-like peptide 2; UniProt P01275 148-178, looked up, fragment) | ~27 min | – | –
2 | teduglutide: GLP-2 analogue containing Gly substitution at position 2 | – | about two | –
3 | Hy-His-Ala-Asp-Gly-Ser-Phe-Ser-Asp-Glu-Met-Asn-Thr-Ile-Leu-Asp-Asn-Leu-Ala-Ala-Arg-Asp-Phe-Ile-Asn-Trp-Leu-Ile-Gln-Thr-Lys-Ile-Thr-Asp-OH [GLP-2 [1-33]] | around 7 minutes | – | seven
